Source: US20050064507

How the values were obtained:
[1] = molecular target: T1, dag kinase zeta peptide KKKKRASFKRKSSKKG (SEQ ID NO:114) (not fully specified)
T1 chain: KKKKRASFKRKSSKKG

[2] = molecular target: T2, HERG peptide TELEGGFSRQRKRKLSFRRR (SEQ ID NO:140) (not fully specified)
T2 chain: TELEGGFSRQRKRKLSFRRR

[3] = molecular target: T3, ribosomal protein S6 peptide AKRRRLSSLRASTSK (SEQ ID NO:120) (not fully specified)
T3 chain: AKRRRLSSLRASTSK

[4] = molecular target: T4, phospholemman peptide EEGTFRSSIRRLSTRRR (SEQ ID NO:116) (not fully specified)
T4 chain: EEGTFRSSIRRLSTRRR

[5] = molecular target: T5, SDPR peptide EKIKRSSLKKVDSLKK (SEQ ID NO:104) (not fully specified)
T5 chain: EKIKRSSLKKVDSLKK

[6] = molecular target: T6, fit1 peptide VQMTWSYPDEKNKRASVRRR (SEQ ID NO:158) (not fully specified)
T6 chain: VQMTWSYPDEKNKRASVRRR

[7] = molecular target: T7, MAP3K14 peptide WKGKRRSKARKKRK (SEQ ID NO:100) (not fully specified)
T7 chain: WKGKRRSKARKKRK

[8] = molecular target: T8, slp4 peptide TYLLPDKSRQGKRKTSIKRD (SEQ ID NO:153) (not fully specified)
T8 chain: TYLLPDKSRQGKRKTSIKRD

[9] = molecular target: T9, PARIS1 peptide EYLERRASRRRAV (SEQ ID NO:130) (not fully specified)
T9 chain: EYLERRASRRRAV

[10] = molecular target: T10, ASIP peptide KKRSSKKEASMKKVVRP (SEQ ID NO:97) (not fully specified)
T10 chain: KKRSSKKEASMKKVVRP

[11] = molecular target: T11, dag kinase zeta peptide RPQNTLKASKKKKRASFKRK (SEQ ID NO:118) (not fully specified)
T11 chain: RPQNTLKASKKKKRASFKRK

[12] = molecular target: T12, PLEK peptide KFARKSTRRSIRLPE (SEQ ID NO:78) (not fully specified)
T12 chain: KFARKSTRRSIRLPE

[13] = molecular target: T13, AF15q14 peptide GFLNEPLSSKSQRRKSLKLK (SEQ ID NO:132) (not fully specified)
T13 chain: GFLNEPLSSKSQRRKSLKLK

[14] = molecular target: T14, DGKZ peptide KKKKRASFKRKSSKKG (SEQ ID NO:77) (not fully specified)
T14 chain: KKKKRASFKRKSSKKG

[15] = molecular target: T15, SYTL4 peptide RQGKRKTSIKRDTVNPL (SEQ ID NO:87) (not fully specified)
T15 chain: RQGKRKTSIKRDTVNPL

[16] = molecular target: T16, GABA A receptor beta 2 peptide ERHVAQKKSRLRRRASQLKI (SEQ ID NO:142) (not fully specified)
T16 chain: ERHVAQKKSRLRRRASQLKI

[17] = molecular target: T17, cyclophilin G peptide TEEKSKKRKKKHRKNSRKHK (SEQ ID NO:165) (not fully specified)
T17 chain: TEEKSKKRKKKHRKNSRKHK

[18] = molecular target: T18, splicing factor, arginine/serine-rich 4 peptide RSRSRSRSKSKDKRKSRKRS (SEQ ID NO:134) (not fully specified)
T18 chain: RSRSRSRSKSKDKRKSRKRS

[19] = molecular target: T19, NF1 peptide SQVQKQRSAGSFKRNSIKKI (SEQ ID NO:127) (not fully specified)
T19 chain: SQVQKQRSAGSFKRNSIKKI

[20] = molecular target: T20, p164-RhoGEF peptide PRLIRRGSKKRPAR (SEQ ID NO:124) (not fully specified)
T20 chain: PRLIRRGSKKRPAR

[21] = molecular target: T21, MARCKS peptide KKKKKRFSFKKSFKL (SEQ ID NO:80) (not fully specified)
T21 chain: KKKKKRFSFKKSFKL

[22] = molecular target: T22, dag kinase iota peptide NRKKKRTSFKRKA (SEQ ID NO:117) (not fully specified)
T22 chain: NRKKKRTSFKRKA

[23] = molecular target: T23, CHRM1 peptide RKIPKRPGSVHRTPSRQ (SEQ ID NO:83) (not fully specified)
T23 chain: RKIPKRPGSVHRTPSRQ

[24] = molecular target: T24, MCM2 peptide VQRHRSMRKTFARYLSFRRD (SEQ ID NO:129) (not fully specified)
T24 chain: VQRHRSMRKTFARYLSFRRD

[25] = molecular target: T25, MLK3 peptide QQVDRERPHVRRRRGTFKRS (SEQ ID NO:128) (not fully specified)
T25 chain: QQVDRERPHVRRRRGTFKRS

[26] = molecular target: T26, MYBPC3 peptide LLKKRDSFRTPRDSKLE (SEQ ID NO:103) (not fully specified)
T26 chain: LLKKRDSFRTPRDSKLE

[27] = molecular target: T27, MLK3 peptide HVRRRRGTFKRSKLRARD (SEQ ID NO:76) (not fully specified)
T27 chain: HVRRRRGTFKRSKLRARD

[28] = molecular target: T28, ARHGAP6 peptide DGQKRKKSLRKKLD (SEQ ID NO:92) (not fully specified)
T28 chain: DGQKRKKSLRKKLD

[29] = molecular target: T29, SMARCA5 peptide MAQIERGEARIQRRISIKKA (SEQ ID NO:166) (not fully specified)
T29 chain: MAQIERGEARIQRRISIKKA

[30] = molecular target: T30, NIK peptide TEGKMARVAWKGKRRSKARK (SEQ ID NO:164) (not fully specified)
T30 chain: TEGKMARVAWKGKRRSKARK

[31] = molecular target: T31, dag kinase iota peptide NRKKKRTSFKRKA (SEQ ID NO:115) (not fully specified)
T31 chain: NRKKKRTSFKRKA

B1: PKC-zeta (protein)
chain: MPSRTGPKMEGSGGRVRLKAHYGGDIFITSVDAATTFEELCEEVRDMCRLHQQHPLTLKWVDSEGDPCTVSSQMELEEAFRLARQCRDEGLIIHVFPSTPEQPGLPCPGEDKSIYRRGARRWRKLYRANGHLFQAKRFNRRAYCGQCSERIWGLARQGYRCINCKLLVHKRCHGLVPLTCRKHMDSVMPSQEPPVDDKNEDADLPSEETDGIAYISSSRKHDSIKDDSEDLKPVIDGMDGIKISQGLGLQDFDLIRVIGRGSYAKVLLVRLKKNDQIYAMKVVKKELVHDDEDIDWVQTEKHVFEQASSNPFLVGLHSCFQTTSRLFLVIEYVNGGDLMFHMQRQRKLPEEHARFYAAEICIALNFLHERGIIYRDLKLDNVLLDADGHIKLTDYGMCKEGLGPGDTTSTFCGTPNYIAPEILRGEEYGFSVDWWALGVLMFEMMAGRSPFDIITDNPDMNTEDYLFQVILEKPIRIPRFLSVKASHVLKGFLNKDPKERLGCRPQTGFSDIKSHAFFRSIDWDLLEKKQALPPFQPQITDDYGLDNFDTQFTSEPVQLTPDDEDAIKRIDQSEFEGFEYINPLLLSTEESV
in vitro phosphorylation, 1 uM peptide (% of best substrate) [1]: 45
in vitro phosphorylation, 10 uM peptide (% of best substrate) [1]: 51
in vitro phosphorylation, 1 uM peptide (% of best substrate) [2]: 24
in vitro phosphorylation, 10 uM peptide (% of best substrate) [2]: 49
in vitro phosphorylation, 1 uM peptide (% of best substrate) [3]: 43
in vitro phosphorylation, 10 uM peptide (% of best substrate) [3]: 34
in vitro phosphorylation, 1 uM peptide (% of best substrate) [4]: 100
in vitro phosphorylation, 10 uM peptide (% of best substrate) [4]: 100
in vitro phosphorylation (% of best substrate) [5]: 3
in vitro phosphorylation, 1 uM peptide (% of best substrate) [6]: 11
in vitro phosphorylation, 10 uM peptide (% of best substrate) [6]: 72
in vitro phosphorylation (% of best substrate) [7]: 8
in vitro phosphorylation, 1 uM peptide (% of best substrate) [8]: 6
in vitro phosphorylation, 10 uM peptide (% of best substrate) [8]: 13
in vitro phosphorylation, 1 uM peptide (% of best substrate) [9]: 36
in vitro phosphorylation, 10 uM peptide (% of best substrate) [9]: 39
in vitro phosphorylation (% of best substrate) [10]: 1
in vitro phosphorylation, 1 uM peptide (% of best substrate) [11]: 46
in vitro phosphorylation, 10 uM peptide (% of best substrate) [11]: 57
in vitro phosphorylation (% of best substrate) [12]: 100
in vitro phosphorylation, 1 uM peptide (% of best substrate) [13]: 19
in vitro phosphorylation, 10 uM peptide (% of best substrate) [13]: 61
in vitro phosphorylation (% of best substrate) [14]: 60
in vitro phosphorylation (% of best substrate) [15]: 3
in vitro phosphorylation, 1 uM peptide (% of best substrate) [16]: 22
in vitro phosphorylation, 10 uM peptide (% of best substrate) [16]: 37
in vitro phosphorylation, 1 uM peptide (% of best substrate) [17]: 1
in vitro phosphorylation, 10 uM peptide (% of best substrate) [17]: 2
in vitro phosphorylation, 1 uM peptide (% of best substrate) [18]: 5
in vitro phosphorylation, 10 uM peptide (% of best substrate) [18]: 5
in vitro phosphorylation, 1 uM peptide (% of best substrate) [19]: 19
in vitro phosphorylation, 10 uM peptide (% of best substrate) [19]: 19
in vitro phosphorylation, 1 uM peptide (% of best substrate) [20]: 45
in vitro phosphorylation, 10 uM peptide (% of best substrate) [20]: 32
in vitro phosphorylation (% of best substrate) [21]: 16
in vitro phosphorylation, 1 uM peptide (% of best substrate) [22]: 20
in vitro phosphorylation, 10 uM peptide (% of best substrate) [22]: 11
in vitro phosphorylation (% of best substrate) [23]: 4
in vitro phosphorylation, 1 uM peptide (% of best substrate) [24]: 51
in vitro phosphorylation, 10 uM peptide (% of best substrate) [24]: 31
in vitro phosphorylation, 1 uM peptide (% of best substrate) [25]: 14
in vitro phosphorylation, 10 uM peptide (% of best substrate) [25]: 9
in vitro phosphorylation (% of best substrate) [26]: 8
in vitro phosphorylation (% of best substrate) [27]: 41
in vitro phosphorylation (% of best substrate) [28]: 2
in vitro phosphorylation, 1 uM peptide (% of best substrate) [29]: 2
in vitro phosphorylation, 10 uM peptide (% of best substrate) [29]: 9
in vitro phosphorylation, 1 uM peptide (% of best substrate) [30]: 3
in vitro phosphorylation, 10 uM peptide (% of best substrate) [30]: 2
in vitro phosphorylation, 1 uM peptide (% of best substrate) [31]: 11
in vitro phosphorylation, 10 uM peptide (% of best substrate) [31]: 10
